Experimental data from paper PMC13334617.
Values joined by “and” are separate entries in the source; they are usually repeats but may differ in a detail not shown here. Equal values may be shown once.

How the values were obtained:
[1] = target: ACM1 variant of AC fused to GFP (ACM1-GFP), encoded by plasmid pACM1-Gfp (Bordetella pertussis | not stated) (UniProt P0DKX7); experiment: two-hybrid
[2] = target: ACM2 variant of AC fused to GFP (ACM2-GFP), encoded by plasmid pACM2-Gfp (Bordetella pertussis | not stated) (UniProt P0DKX7); experiment: two-hybrid

B1: CaM fused to the V9A nanobody at its N-terminus and a tetra-cysteine tag at its C-terminus (CaM-V9A) (VHH)
VHH: DVQLQESGGGSVQAGGSLRLSCAASGDTFSSYSMAWFRQAPGKECELVSNILRDGTTTYAGSVKGRFTISRDDAKNTVYLQMVNLKSEDTARYYCAADSGTQLGYVGAVGLSCLDYVMDYWGKGTQVTVSS
- cAMP [1]: > 50 nmol/mg
- ß gal (Rel. Units) [1]: 26 Rel. Units
- cAMP [2]: > 60 nmol/mg
- ß gal (Rel. Units) [2]: 78 Rel. Units

B2: CaM fused to the V9A nanobody at its N-terminus, with a C-terminal AviTag (CaM-V9A), encoded by plas (VHH)
VHH: B1 VHH
- ß gal (Rel. Units) [1]: 4 Rel. Units
- ß gal (Rel. Units) [2]: 57 Rel. Units and 23 Rel. Units

B3: CaM fused to the V1K nanobody at its N-terminus, with a C-terminal AviTag (CaM-V1K), encoded by plasmid pK1Cam-V1K (VHH)
VHH: QVQLVESGGALVQPGGSLRLSCAASGFPVNRYSMRWYRQAPGKEREWVAGMSSAGDRSSYEDSVKGRFTISRDDARNTVYLQMNSLKPEDTAVYYCNVNVGFEYWGQGTQVTVSS
- ß gal (Rel. Units) [2]: 74 Rel. Units
